Assay results published in patent publication US20160319034A1 (ONCOMED PHARMACEUTICALS, published 2016).

Columns and labels:
[1] = target: full-length human MET (FL-MET) on cells (human) (UniProt P08581); assay: FACS: inhibition of biotin-HGF binding to MET-transfected HEK-293T cells, agent at 0.16 µg/ml
[2] = target: human MET (soluble analyte in the Biacore assay) (human) (UniProt P08581); assay: SPR (Biacore 2000): agent captured via goat anti-human antibody, human MET injected
[3] = target: full-length human MET (FL-MET) on cells (human) (UniProt P08581); assay: FACS: inhibition of biotin-HGF binding to MET-transfected HEK-293T cells, agent at 10 µg/ml
[4] = target: full-length human MET (FL-MET) on cells (human) (UniProt P08581); assay: FACS blocking assay on MET-transfected HEK-293T cells; blocked ligand: biotinylated HGF, PE-streptavidin
[5] = target: T1, human MET (soluble analyte in the Biacore assay) (human, UniProt P08581 25-932); assay: SPR (Biacore 2000): agent captured via goat anti-human antibody, human MET injected
T1 sequence (P08581 25-932 limits assumed): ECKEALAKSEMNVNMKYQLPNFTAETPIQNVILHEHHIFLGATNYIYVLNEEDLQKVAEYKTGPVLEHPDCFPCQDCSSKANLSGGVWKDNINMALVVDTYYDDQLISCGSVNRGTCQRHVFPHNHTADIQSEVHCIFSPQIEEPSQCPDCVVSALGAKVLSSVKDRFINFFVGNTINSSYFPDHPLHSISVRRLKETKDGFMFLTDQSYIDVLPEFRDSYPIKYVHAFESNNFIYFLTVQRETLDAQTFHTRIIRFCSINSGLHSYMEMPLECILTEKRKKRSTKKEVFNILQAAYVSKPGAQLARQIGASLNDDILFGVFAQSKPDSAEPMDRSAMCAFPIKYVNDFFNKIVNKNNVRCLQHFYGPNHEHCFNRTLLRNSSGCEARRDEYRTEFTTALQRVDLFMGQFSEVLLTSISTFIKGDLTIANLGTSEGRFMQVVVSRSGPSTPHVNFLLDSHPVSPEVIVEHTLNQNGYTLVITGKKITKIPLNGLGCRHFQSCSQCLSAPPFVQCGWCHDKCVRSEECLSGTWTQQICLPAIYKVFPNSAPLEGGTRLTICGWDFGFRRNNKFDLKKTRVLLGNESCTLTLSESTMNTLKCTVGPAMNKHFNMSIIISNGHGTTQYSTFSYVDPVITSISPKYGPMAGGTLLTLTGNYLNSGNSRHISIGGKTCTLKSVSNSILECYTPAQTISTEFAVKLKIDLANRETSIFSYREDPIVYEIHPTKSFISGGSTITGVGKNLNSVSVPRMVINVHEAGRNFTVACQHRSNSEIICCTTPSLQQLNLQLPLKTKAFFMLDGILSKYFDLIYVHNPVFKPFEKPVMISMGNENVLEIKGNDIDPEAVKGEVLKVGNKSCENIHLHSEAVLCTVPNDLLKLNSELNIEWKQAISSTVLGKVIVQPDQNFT
Experimental: (§1) The KD of monovalent version of anti-MET antibody 73R009, monovalent anti-MET antibody 5D5, and anti-MET/FZD8-Fc bispecific agent 315B06 were determined using a Biacore 2000 system from Biacore Life Sciences (GE Healthcare). A goat anti-human antibody (Invitrogen H10500) was coupled to a carboxymethyl-dextran (CM5) SPR chip using standard amine-based chemistry (NHS/EDC) and blocked with ethanolamine. Antibodies were diluted to a concentration of 10 μg/ml in HBS-P-BSA (0.01M HEPES pH7.4, 0.15M NaCl, 0.005% v/v Polysorbate 20, 10 μg/ml BSA) and captured onto the chip via the anti-human antibody. Human MET was serially diluted 2-fold from 300 nM to 37.5 nM in HBS-P-BSA and injected sequentially over the captured anti-MET antibodies. MET association and dissociation was measured at each concentration. After each antigen injection 5 μl of 100 mM H₃P0₄ was injected to remove the antigen-antibody complex and a subsequent injection performed. Kinetic data were collected over time and were fit using the simultaneous global fit equation to yield affinity constants (KD values) for each agent.
In addition, the bispecific agent 315B06 appeared to have stronger affinity for human MET than anti-MET antibody 5D5.

[6] = target: T2, human Sema mutant Mut99 (Q99R; Sema-hCD4TM-GFP) on cells (human, UniProt P08581 25-515); assay: FACS on transfected HEK-293T cells
T2 construct: not shown: human CD4 transmembrane domain and GFP (display and reporter carrier at the C end)
T2 sequence (P08581 25-515 Q99R limits assumed): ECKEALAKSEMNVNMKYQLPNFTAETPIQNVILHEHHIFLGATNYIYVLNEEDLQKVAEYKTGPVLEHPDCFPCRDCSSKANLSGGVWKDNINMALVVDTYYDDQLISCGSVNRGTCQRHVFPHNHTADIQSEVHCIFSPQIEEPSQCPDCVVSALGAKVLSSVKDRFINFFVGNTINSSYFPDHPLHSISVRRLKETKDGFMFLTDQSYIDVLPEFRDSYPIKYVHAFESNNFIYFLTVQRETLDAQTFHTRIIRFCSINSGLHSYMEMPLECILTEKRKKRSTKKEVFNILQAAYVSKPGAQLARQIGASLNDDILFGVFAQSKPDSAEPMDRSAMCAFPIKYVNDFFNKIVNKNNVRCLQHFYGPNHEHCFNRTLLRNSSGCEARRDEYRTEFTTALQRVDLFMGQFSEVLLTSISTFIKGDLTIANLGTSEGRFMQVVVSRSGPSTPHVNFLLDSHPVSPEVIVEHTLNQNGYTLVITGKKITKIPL
Experimental: (§2) To identify the MET epitope recognized by the anti-MET/FZD8-Fc bispecific agent, epitope mapping was performed. […] Therefore, site-directed mutagenesis was performed to create a series of human Sema mutants. Kunkel mutagenesis was used to replace specific amino acids in the human Sema sequence with the corresponding amino acids found in the mouse Sema sequence at predicted antibody-binding sites. The human Sema mutants were: Mut96,99 (F96L and Q99R), Mut96 (F96L), Mut99 (Q99R), Mut328 (Q328N), Mut331 (R331K), and Mut337,338 (L337P and N338S).
(§3) Mammalian expression plasmid vectors encoding a wild-type human Sema, a wild-type mouse Sema, a mouse/human Sema mutant wherein the 5′ end is mouse (aa 1-331) and the 3′ end is human (aa 332-515), and the human Sema mutants outlined above were generated by standard recombinant technology. These constructs comprise the transmembrane domain of a human CD4 protein and GFP (for example, Sema-hCD4TM-GFP). These expression constructs allow for expression of the Sema domain on the cell surface, as well as expression of GFP to monitor expression. […] The cells were washed and bound bispecific agents were detected with a secondary anti-human Fc antibody conjugated to allophycocyanin (APC). […] Labeled cells were analyzed by flow cytometry to measure the binding of 315B07 and 5D5/FZD8-Fc to the series of Sema mutants.

[7] = target: T3, human Sema mutant Mut96,99 (F96L and Q99R; Sema-hCD4TM-GFP) on cells (human, UniProt P08581 25-515); assay: FACS on transfected HEK-293T cells
T3 construct: not shown: human CD4 transmembrane domain and GFP (display and reporter carrier at the C end)
T3 sequence (P08581 25-515 F96L/Q99R limits assumed): as the sequence (P08581 25-515 Q99R limits assumed) above, with F72L counted along it
Experimental: as §2, §3

[8] = target: T1, human MET (soluble analyte in the …); assay: SPR (Biacore 2000) as described in Example 1
Experimental: as §1
Antibody 73R010 was used in a variation of the anti-MET/FZD8-Fc bispecific agent, and this variant bispecific agent is referred to as 315B07.

full-length human MET (FL-MET) on cells (human), sequence (P08581 25-1390 limits assumed): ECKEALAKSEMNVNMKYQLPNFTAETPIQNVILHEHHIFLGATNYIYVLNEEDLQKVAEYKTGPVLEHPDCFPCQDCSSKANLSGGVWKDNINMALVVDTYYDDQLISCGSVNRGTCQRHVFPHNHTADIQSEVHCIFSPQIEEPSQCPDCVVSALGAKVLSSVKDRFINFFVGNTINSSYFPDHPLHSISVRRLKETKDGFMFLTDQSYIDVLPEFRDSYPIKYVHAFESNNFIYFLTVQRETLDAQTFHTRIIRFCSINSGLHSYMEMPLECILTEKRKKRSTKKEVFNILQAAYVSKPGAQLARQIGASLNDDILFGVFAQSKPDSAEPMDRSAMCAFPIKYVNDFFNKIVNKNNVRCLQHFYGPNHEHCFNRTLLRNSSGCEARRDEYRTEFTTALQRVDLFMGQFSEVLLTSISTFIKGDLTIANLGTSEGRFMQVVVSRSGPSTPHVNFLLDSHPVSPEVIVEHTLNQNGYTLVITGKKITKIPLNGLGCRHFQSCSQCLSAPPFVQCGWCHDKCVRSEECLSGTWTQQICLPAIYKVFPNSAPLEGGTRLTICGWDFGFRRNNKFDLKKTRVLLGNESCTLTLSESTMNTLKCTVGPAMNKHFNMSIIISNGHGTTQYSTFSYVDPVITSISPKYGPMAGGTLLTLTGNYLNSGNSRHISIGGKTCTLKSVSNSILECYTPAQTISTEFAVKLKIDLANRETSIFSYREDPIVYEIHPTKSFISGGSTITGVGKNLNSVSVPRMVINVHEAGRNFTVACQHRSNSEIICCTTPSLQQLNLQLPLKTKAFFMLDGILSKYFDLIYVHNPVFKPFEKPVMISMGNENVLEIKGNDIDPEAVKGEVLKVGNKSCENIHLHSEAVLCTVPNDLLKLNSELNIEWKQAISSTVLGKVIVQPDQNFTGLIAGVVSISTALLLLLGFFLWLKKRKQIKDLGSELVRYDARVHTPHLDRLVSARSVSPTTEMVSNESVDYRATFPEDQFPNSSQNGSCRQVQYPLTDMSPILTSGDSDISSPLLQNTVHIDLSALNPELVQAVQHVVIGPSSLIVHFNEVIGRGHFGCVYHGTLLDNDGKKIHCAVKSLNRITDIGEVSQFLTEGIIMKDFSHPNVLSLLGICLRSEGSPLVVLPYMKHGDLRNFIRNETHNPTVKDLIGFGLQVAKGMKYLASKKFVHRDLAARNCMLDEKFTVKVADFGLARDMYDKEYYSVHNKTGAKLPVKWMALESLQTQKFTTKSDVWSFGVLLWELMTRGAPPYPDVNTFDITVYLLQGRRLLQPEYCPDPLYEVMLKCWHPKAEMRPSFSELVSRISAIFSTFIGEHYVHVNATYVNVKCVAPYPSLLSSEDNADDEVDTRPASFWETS
human MET (soluble analyte in the Biacore assay) (human), sequence (P08581 25-932 limits assumed): as the sequence (P08581 25-932 limits assumed) above

monovalent anti-MET antibody 5D5
percent reduction of HGF binding to MET [1]: 28%
Kd [2]: 7.2 nM
percent reduction of HGF binding to MET [3]: 70%
% Binding of hHGF at 0.16 ug/ml antibody [4]: 14.3%
% Binding of hHGF at 0.3 ug/ml antibody [4]: 10.6%
% Binding of hHGF at 0.625 ug/ml antibody [4]: 12%
% Binding of hHGF at 1.25 ug/ml antibody [4]: 8.54%
% Binding of hHGF at 2.5 ug/ml antibody [4]: 9.61%
% Binding of hHGF at 5 ug/ml antibody [4]: 6.67%
% Binding of hHGF at 10 ug/ml antibody [4]: 6.31%
% Inhibition of hHGF binding at 0.3 ug/ml antibody [4]: 47%
% Inhibition of hHGF binding at 0.625 ug/ml antibody [4]: 40%
% Inhibition of hHGF binding at 1.25 ug/ml antibody [4]: 57%
% Inhibition of hHGF binding at 2.5 ug/ml antibody [4]: 52%
% Inhibition of hHGF binding at 5 ug/ml antibody [4]: 67%

B1: anti-MET antibody 73R009 (bivalent “parental” antibody) (antibody, human IgG2, kappa, V domains shown)
VH: QVQLQESGPGLVKPSETLSLTCTVTGTTITASYAWSWIRQPPGKGLEWMGYISYSGGTDYNPSLKSRITISRDTFKNQFSLKLSSVTAADTATYYCARKGAYWGQGTLVTVSS
VL: DIVLTQSPATLSASPGEKVTLTCSASSSVSSSYLYWYQQKPGQAPKLLIYSTSNLASGVPARFSGSGSGTSYSLTISSLEPEDFATYYCHQWSSYPYTFGGGTKLEIKR
Kd [5]: 1.1 nM

B2: monovalent version of anti-MET antibody 73R009 (antibody, V domains shown)
VH: QVQLQESGPGLVKPSETLSLTCTVTGTTITASYAWSWIRQPPGKGLEWMGYISYSGGTDYNPSLKSRITISRDTFKNQFSLKLSSVTAADTATYYCARKGAYWGQGTLVTVSS
VL: DIVLTQSPATLSASPGEKVTLTCSASSSVSSSYLYWYQQKPGQAPKLLIYSTSNLASGVPARFSGSGSGTSYSLTISSLEPEDFATYYCHQWSSYPYTFGGGTKLEIK
notes: Only the 73R009 variable regions can be tied to this molecule; also called monovalent anti-MET antibody 73R009; monovalent version of 73R009
Kd [5]: 1.4 nM

B3: anti-MET/FZD8-Fc bispecific agent 315B06 (bispecific antibody, human IgG2, kappa)
heavy: QVQLQESGPGLVKPSETLSLTCTVTGTTITASYAWSWIRQPPGKGLEWMGYISYSGGTDYNPSLKSRITISRDTFKNQFSLKLSSVTAADTATYYCARKGAYWGQGTLVTVSSASTKGPSVFPLAPCSRSTSESTAALGCLVKDYFPEPVTVSWNSGALTSGVHTFPAVLQSSGLYSLSSVVTVPSSNFGTQTYTCNVDHKPSNTKVDKTVERKCCVECPPCPAPPVAGPSVFLFPPKPKDTLMISRTPEVTCVVVDVSHEDPEVQFNWYVDGVEVHNAKTKPREEQFNSTFRVVSVLTVVHQDWLNGKEYKCKVSNKGLPAPIEKTISKTKGQPREPQVYTLPPSREKMTKNQVSLTCLVKGFYPSDIAVEWESNGQPENNYKTTPPMLKSDGSFFLYSKLTVDKSRWQQGNVFSCSVMHEALHNHYTQKSLSLSPGK
light: DIVLTQSPATLSASPGEKVTLTCSASSSVSSSYLYWYQQKPGQAPKLLIYSTSNLASGVPARFSGSGSGTSYSLTISSLEPEDFATYYCHQWSSYPYTFGGGTKLEIKRTVAAPSVFIFPPSDEQLKSGTASVVCLLNNFYPREAKVQWKVDNALQSGNSQESVTEQDSKDSTYSLSSTLTLSKADYEKHKVYACEVTHQGLSSPVTKSFNRGEC
chain: ASAKELACQEITVPLCKGIGYNYTYMPNQFNHDTQDEAGLEVHQFWPLVEIQCSPDLKFFLCSMYTPICLEDYKKPLPPCRSVCERAKAGCAPLMRQYGFAWPDRMRCDRLPEQGNPDTLCMDYNRTDLTTTKVDKTVERKSCVECPPCPAPPVAGPSVFLFPPKPKDTLMISRTPEVTCVVVDVSHEDPEVQFNWYVDGVEVHNAKTKPREEQFNSTFRVVSVLTVVHQDWLNGKEYKCKVSNKGLPAPIEKTISKTKGQPREPQVYTLPPSREEMTKNQVSLTCLVEGFYPSDIAVEWESNGQPENNYKTTPPMLDSDGSFFLYSELTVDKSRWQQGNVFSCSVMHEALHNHYTQKSLSLSPGK
notes: Heterodimer with one anti-MET arm (heavy and light chain) and one FZD8-Fc soluble receptor arm; also called bispecific anti-MET/FZD8-Fc agent 315B06; 351B06 [sic]
Kd [5]: 1.8 nM

B4: anti-MET/FZD8-Fc bispecific agent 315B07 (bispecific antibody, human IgG2, kappa)
heavy: QVQLQESGPGLVKPSETLSLTCTVSGTTITASYAWSWIRQPPGKGLEWMGYISYSGGTDYNPSLKSRVTISRDTFKNQFSLKLSSVTAADTAVYYCARKGAYWGQGTLVTVSSASTKGPSVFPLAPCSRSTSESTAALGCLVKDYFPEPVTVSWNSGALTSGVHTFPAVLQSSGLYSLSSVVTVPSSNFGTQTYTCNVDHKPSNTKVDKTVERKCCVECPPCPAPPVAGPSVFLFPPKPKDTLMISRTPEVTCVVVDVSHEDPEVQFNWYVDGVEVHNAKTKPREEQFNSTFRVVSVLTVVHQDWLNGKEYKCKVSNKGLPAPIEKTISKTKGQPREPQVYTLPPSREKMTKNQVSLTCLVKGFYPSDIAVEWESNGQPENNYKTTPPMLKSDGSFFLYSKLTVDKSRWQQGNVFSCSVMHEALHNHYTQKSLSLSPGK
light: EIVLTQSPATLSLSPGERATLSCSASSSVSSSYLYWYQQKPGQAPRLLIYSTSNLASGIPARFSGSGSGTDFTLTISRLEPEDFAVYYCHQWSSYPYTFGQGTKLEIKRTVAAPSVFIFPPSDEQLKSGTASVVCLLNNFYPREAKVQWKVDNALQSGNSQESVTEQDSKDSTYSLSSTLTLSKADYEKHKVYACEVTHQGLSSPVTKSFNRGEC
chain: ASAKELACQEITVPLCKGIGYNYTYMPNQFNHDTQDEAGLEVHQFWPLVEIQCSPDLKFFLCSMYTPICLEDYKKPLPPCRSVCERAKAGCAPLMRQYGFAWPDRMRCDRLPEQGNPDTLCMDYNRTDLTTTKVDKTVERKSCVECPPCPAPPVAGPSVFLFPPKPKDTLMISRTPEVTCVVVDVSHEDPEVQFNWYVDGVEVHNAKTKPREEQFNSTFRVVSVLTVVHQDWLNGKEYKCKVSNKGLPAPIEKTISKTKGQPREPQVYTLPPSREEMTKNQVSLTCLVEGFYPSDIAVEWESNGQPENNYKTTPPMLDSDGSFFLYSELTVDKSRWQQGNVFSCSVMHEALHNHYTQKSLSLSPGK
notes: Heterodimer with one humanized anti-MET arm (73R010) and one FZD8-Fc soluble receptor arm; also called OMP-315B07; 3151307 [sic]
binding result [6]: no binding
binding result [7]: no binding
Kd [8]: 0.126 nM
